# Laboratory results as given in US20170240633A1 (published 2017).
# Numbering of substitutions follows the chain as printed.
# B1: anti-TIM-3 antibody clone A11 (antibody, V domains shown)
# VH: QVQLQQWGAGLLKPSETLSLTCAVYGGSFSGYYWSWIRQPPGKGLEWIGEINHSGSTNYNPSLKSRVTISVDTSKNQFSLKLSSVTAADTAVYYCARGYVAGFDYWGQGTLVTVSS
# VL: QSVVTQPPSVSAAPGQKVTISCSGSSSNIGNNYVSWYQQLPGTAPKLLIYGNNWRPSGIPDRFSGSKSGTSATLAISGLQTGDEADYYCETWDSSLSAGVFGGGTKLTVL
# notes: ELISA and SPR are described for Fab; The format in each assay is not clearly stated
# B2: anti-TIM-3 antibody clone G7 (antibody, V domains shown)
# VH: EVQLVQSGAEVKKPGASVKVSCKASGYTFTSYYMHWVRQAPGQGLEWMGIINPSGGSTSYAQKFQGRVTMTRDTSTSTVYMELSSLRSEDTAVYYCARDQYSSGWYYYGMDVWGQGTTVTVSS
# VL: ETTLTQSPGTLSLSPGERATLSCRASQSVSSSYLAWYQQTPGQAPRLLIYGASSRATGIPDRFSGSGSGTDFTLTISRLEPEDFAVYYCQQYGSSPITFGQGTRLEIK
# notes: as for B1
# B3: anti-TIM-3 antibody clone G9 (antibody, V domains shown)
# VH: B2 VH with E1Q, V5Q, Q100L, S103Y, W105F
# VL: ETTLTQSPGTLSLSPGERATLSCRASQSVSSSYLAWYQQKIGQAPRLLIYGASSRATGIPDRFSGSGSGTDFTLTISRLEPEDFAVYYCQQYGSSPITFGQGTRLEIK
# notes: as for B1
# B4: anti-TIM-3 antibody clone B10 (antibody, V domains shown)
# VH: QVQLQESGPGLVKASETLSLTCTVSGGSIGSSDYYWGWIRQPPGKGLEWIGSIYYSGSTYYNPSLKSRVTMSVDTPNNQFSLKLSSVTAADTAVYYCARGEHRGEFDYWGQGTLVTVSS
# VL: EIVLTQSPATLSFSPGERATLSCRASQSVGSYLAWYQQRPGQAPRPLIYDATNRATGIPTRFSGSGSGTDFTLTISSLEPEDFATYYCQHRRTFGRGTKLEIK
# notes: as for B1
# B5: anti-TIM-3 antibody clone G6 (antibody, V domains shown)
# VH: QVQLQESGPGLVKPSGTLSLTCAVSGGSISSSNWWSWVRQPPGKGLEWIGEIYHSGSTNYNPSLKSRVTISVDKSKNQFSLKLSSVTAADTAVYYCARVVAVAGTVDYWGQGTLVTVSS
# VL: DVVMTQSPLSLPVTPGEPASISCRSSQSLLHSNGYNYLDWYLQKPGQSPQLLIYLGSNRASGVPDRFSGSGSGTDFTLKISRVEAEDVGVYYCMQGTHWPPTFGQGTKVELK
# notes: as for B1
# B6: anti-TIM-3 antibody clone A3 (antibody, V domains shown)
# VH: QVQLVQSGAEVKKPGASVKVSCKASGYTFTSYYMHWVRQAPGQGLEWMGIINPSGGSTSYAQKFQGRVTMTRDTSTSTVYMELSSLRSEDTAVYYCARSPGVVTALFDYWGQGTLVTVSS
# VL: DIQMTQSPSFMSASVGDRVTITCRASQDIGSYLAWYQQKPGKAPKLLIYAASTLQSGVPSRFSGSGSGTDFTLTINSLQPEDFATYYCQQSYSSPPTFGPGTTLEIK
# notes: From a human phage display library; ELISA screening used Fab-containing supernatants and SPR speaks of 'each candidate Fab'; The format in each assay is not clearly stated
# Target: T1, human TIM-3 coupled to human Fc (human, UniProt Q8TDQ0 22-200, limits assumed)
# T1 construct: Antigen coated on ELISA plates and immobilised on the SPR chip; not shown: human Fc
# Assay: ELISA on plate-coated human TIM-3 coupled to human Fc
# Experimental: After a small-scale induction in HB2151 cells, Fab antibodies were screened by ELISA. […] After extensive washes in PBS Tween-20, Fab-containing supernatants from induction plates were transferred into the ELISA plates in the presence of 7% milk in PBS. After 90 minutes at room temperature under agitation and extensive washes, a goat anti-human Fab antibody coupled to HRP was added. One hour later, plates were washed and TMB substrate added. The reaction was stopped with 1M HCl and optical density measured at 450 nm with a reference at 670 nm. Antibodies giving an absorbance >0.1 were selected as positive.
row,Binder,binding result
1,B1,binds
2,B2,binds
3,B3,binds
4,B4,binds
5,B5,binds
6,B6,binds
